B1: 9A8.12-LS-9E8.4E DVD-Ig (PR-1577547) (bispecific antibody, human IgG1, kappa, L234A L235A)
heavy: EVQLVQSGAEVKKPGASVKVSCKASGYTFTNYGMYWVRQAPGQGLEWMGWINTETGKPIYADDFKGRVTMTTDTSTSTAYMELRSLRSDDTAVYYCARVDYDGSFWFAYWGQGTLVTVSSASTKGPSVFPLAPEVTLRESGPALVKPTQTLTLTCTFSGFSLSTYGMGVGWIRQPPGKALEWLANIWWDDDKYYNPSLKNRLTISKDTSKNQVVLTMTNMDPVDTATYYCARIESIGTTYSFDYWGQGTMVTVSSASTKGPSVFPLAPSSKSTSGGTAALGCLVKDYFPEPVTVSWNSGALTSGVHTFPAVLQSSGLYSLSSVVTVPSSSLGTQTYICNVNHKPSNTKVDKKVEPKSCDKTHTCPPCPAPEAAGGPSVFLFPPKPKDTLMISRTPEVTCVVVDVSHEDPEVKFNWYVDGVEVHNAKTKPREEQYNSTYRVVSVLTVLHQDWLNGKEYKCKVSNKALPAPIEKTISKAKGQPREPQVYTLPPSREEMTKNQVSLTCLVKGFYPSDIAVEWESNGQPENNYKTTPPVLDSDGSFFLYSKLTVDKSRWQQGNVFSCSVMHEALHNAYTQKSLSLSPGK
light: DTQLTQSPSSLSASVGDRVTITCRASESVSTVIHWYQQKPGKQPKLLIHGASNLESGVPSRFSGSGSGTDFTLTISSLQPEDFATYFCQQHWNDPPTFGQGTKLEIKRTVAAPEFVLTQSPGTLSLSPGERATLSCERSSGDIGESYVSWYQQKPGQAPRLVIYADDQRPSGIPDRFSGSGSGTDFTLTISRLEPEDFAVYYCQSYDINIDIVFGGGTKVEIKRTVAAPSVFIFPPSDEQLKSGTASVVCLLNNFYPREAKVQWKVDNALQSGNSQESVTEQDSKDSTYSLSSTLTLSKADYEKHKVYACEVTHQGLSSPVTKSFNRGEC
B2: 9E8.4E-SL-9A8.12 DVD-Ig (PR-1577548) (bispecific antibody, human IgG1, kappa, L234A L235A)
heavy: EVTLRESGPALVKPTQTLTLTCTFSGFSLSTYGMGVGWIRQPPGKALEWLANIWWDDDKYYNPSLKNRLTISKDTSKNQVVLTMTNMDPVDTATYYCARIESIGTTYSFDYWGQGTMVTVSSASTKGPEVQLVQSGAEVKKPGASVKVSCKASGYTFTNYGMYWVRQAPGQGLEWMGWINTETGKPIYADDFKGRVTMTTDTSTSTAYMELRSLRSDDTAVYYCARVDYDGSFWFAYWGQGTLVTVSSASTKGPSVFPLAPSSKSTSGGTAALGCLVKDYFPEPVTVSWNSGALTSGVHTFPAVLQSSGLYSLSSVVTVPSSSLGTQTYICNVNHKPSNTKVDKKVEPKSCDKTHTCPPCPAPEAAGGPSVFLFPPKPKDTLMISRTPEVTCVVVDVSHEDPEVKFNWYVDGVEVHNAKTKPREEQYNSTYRVVSVLTVLHQDWLNGKEYKCKVSNKALPAPIEKTISKAKGQPREPQVYTLPPSREEMTKNQVSLTCLVKGFYPSDIAVEWESNGQPENNYKTTPPVLDSDGSFFLYSKLTVDKSRWQQGNVFSCSVMHEALHNAYTQKSLSLSPGK
light: EFVLTQSPGTLSLSPGERATLSCERSSGDIGESYVSWYQQKPGQAPRLVIYADDQRPSGIPDRFSGSGSGTDFTLTISRLEPEDFAVYYCQSYDINIDIVFGGGTKVEIKRTVAAPSVFIFPPDTQLTQSPSSLSASVGDRVTITCRASESVSTVIHWYQQKPGKQPKLLIHGASNLESGVPSRFSGSGSGTDFTLTISSLQPEDFATYFCQQHWNDPPTFGQGTKLEIKRTVAAPSVFIFPPSDEQLKSGTASVVCLLNNFYPREAKVQWKVDNALQSGNSQESVTEQDSKDSTYSLSSTLTLSKADYEKHKVYACEVTHQGLSSPVTKSFNRGEC
B3: 9A8.12-SL-9E8.4E DVD-Ig (PR-1577166) (bispecific antibody, human IgG1, kappa, L234A L235A)
heavy: EVQLVQSGAEVKKPGASVKVSCKASGYTFTNYGMYWVRQAPGQGLEWMGWINTETGKPIYADDFKGRVTMTTDTSTSTAYMELRSLRSDDTAVYYCARVDYDGSFWFAYWGQGTLVTVSSASTKGPEVTLRESGPALVKPTQTLTLTCTFSGFSLSTYGMGVGWIRQPPGKALEWLANIWWDDDKYYNPSLKNRLTISKDTSKNQVVLTMTNMDPVDTATYYCARIESIGTTYSFDYWGQGTMVTVSSASTKGPSVFPLAPSSKSTSGGTAALGCLVKDYFPEPVTVSWNSGALTSGVHTFPAVLQSSGLYSLSSVVTVPSSSLGTQTYICNVNHKPSNTKVDKKVEPKSCDKTHTCPPCPAPEAAGGPSVFLFPPKPKDTLMISRTPEVTCVVVDVSHEDPEVKFNWYVDGVEVHNAKTKPREEQYNSTYRVVSVLTVLHQDWLNGKEYKCKVSNKALPAPIEKTISKAKGQPREPQVYTLPPSREEMTKNQVSLTCLVKGFYPSDIAVEWESNGQPENNYKTTPPVLDSDGSFFLYSKLTVDKSRWQQGNVFSCSVMHEALHNAYTQKSLSLSPGK
light: DTQLTQSPSSLSASVGDRVTITCRASESVSTVIHWYQQKPGKQPKLLIHGASNLESGVPSRFSGSGSGTDFTLTISSLQPEDFATYFCQQHWNDPPTFGQGTKLEIKRTVAAPSVFIFPPEFVLTQSPGTLSLSPGERATLSCERSSGDIGESYVSWYQQKPGQAPRLVIYADDQRPSGIPDRFSGSGSGTDFTLTISRLEPEDFAVYYCQSYDINIDIVFGGGTKVEIKRTVAAPSVFIFPPSDEQLKSGTASVVCLLNNFYPREAKVQWKVDNALQSGNSQESVTEQDSKDSTYSLSSTLTLSKADYEKHKVYACEVTHQGLSSPVTKSFNRGEC
B4: AB014-GS10-9E8.4 VH-VK (bispecific antibody, human IgG1, kappa, L234A L235A)
heavy: EVQLVESGGGLVQPGGSLRLSCAASGYTFTNYGMNWVRQAPGKGLEWVGWINTYTGEPTYAADFKRRFTFSLDTSKSTAYLQMNSLRAEDTAVYYCAKYPHYYGSSHWYFDVWGQGTLVTVSSASTKGPSVFPLAPSSKSTSGGTAALGCLVKDYFPEPVTVSWNSGALTSGVHTFPAVLQSSGLYSLSSVVTVPSSSLGTQTYICNVNHKPSNTKVDKKVEPKSCDKTHTCPPCPAPEAAGGPSVFLFPPKPKDTLMISRTPEVTCVVVDVSHEDPEVKFNWYVDGVEVHNAKTKPREEQYNSTYRVVSVLTVLHQDWLNGKEYKCKVSNKALPAPIEKTISKAKGQPREPQVYTLPPSREEMTKNQVSLTCLVKGFYPSDIAVEWESNGQPENNYKTTPPVLDSDGSFFLYSKLTVDKSRWQQGNVFSCSVMHEALHNAYTQKSLSLSPGKGGSGGGGSGGEVTLRESGPALVKPTQTLTLTCTFSGFSLSTYGMGVGWIRQPPGKALEWLANIWWDDDKYYNPSLKNRLTISKDTSKNQVVLTMTNMDPVDTATYYCARIESIGTTYSFDYWGQGTMVTVSSGGGGSGGGGSGGGGSEIVLTQSPGTLSLSPGERATLSCERSSGDIGDSYVSWYQQKPGQAPRLVIYADDQRPSGIPDRFSGSGSGTDFTLTISRLEPEDFAVYYCQSYDINIDIVFGGGTKVEIK
light: not shown
B5: AB014-GS6-9E8.4 VH-VK (bispecific antibody, human IgG1, kappa, L234A L235A)
heavy: EVQLVESGGGLVQPGGSLRLSCAASGYTFTNYGMNWVRQAPGKGLEWVGWINTYTGEPTYAADFKRRFTFSLDTSKSTAYLQMNSLRAEDTAVYYCAKYPHYYGSSHWYFDVWGQGTLVTVSSASTKGPSVFPLAPSSKSTSGGTAALGCLVKDYFPEPVTVSWNSGALTSGVHTFPAVLQSSGLYSLSSVVTVPSSSLGTQTYICNVNHKPSNTKVDKKVEPKSCDKTHTCPPCPAPEAAGGPSVFLFPPKPKDTLMISRTPEVTCVVVDVSHEDPEVKFNWYVDGVEVHNAKTKPREEQYNSTYRVVSVLTVLHQDWLNGKEYKCKVSNKALPAPIEKTISKAKGQPREPQVYTLPPSREEMTKNQVSLTCLVKGFYPSDIAVEWESNGQPENNYKTTPPVLDSDGSFFLYSKLTVDKSRWQQGNVFSCSVMHEALHNAYTQKSLSLSPGKGGSGGGEVTLRESGPALVKPTQTLTLTCTFSGFSLSTYGMGVGWIRQPPGKALEWLANIWWDDDKYYNPSLKNRLTISKDTSKNQVVLTMTNMDPVDTATYYCARIESIGTTYSFDYWGQGTMVTVSSGGGGSGGGGSGGGGSEIVLTQSPGTLSLSPGERATLSCERSSGDIGDSYVSWYQQKPGQAPRLVIYADDQRPSGIPDRFSGSGSGTDFTLTISRLEPEDFAVYYCQSYDINIDIVFGGGTKVEIK
light: not shown
B6: 9E8.4E-GS-9A8.12 (bispecific antibody, human IgG1, kappa, L234A L235A)
heavy: EVTLRESGPALVKPTQTLTLTCTFSGFSLSTYGMGVGWIRQPPGKALEWLANIWWDDDKYYNPSLKNRLTISKDTSKNQVVLTMTNMDPVDTATYYCARIESIGTTYSFDYWGQGTMVTVSSGGGGSGGGGSEVQLVQSGAEVKKPGASVKVSCKASGYTFTNYGMYWVRQAPGQGLEWMGWINTETGKPIYADDFKGRVTMTTDTSTSTAYMELRSLRSDDTAVYYCARVDYDGSFWFAYWGQGTLVTVSSASTKGPSVFPLAPSSKSTSGGTAALGCLVKDYFPEPVTVSWNSGALTSGVHTFPAVLQSSGLYSLSSVVTVPSSSLGTQTYICNVNHKPSNTKVDKKVEPKSCDKTHTCPPCPAPEAAGGPSVFLFPPKPKDTLMISRTPEVTCVVVDVSHEDPEVKFNWYVDGVEVHNAKTKPREEQYNSTYRVVSVLTVLHQDWLNGKEYKCKVSNKALPAPIEKTISKAKGQPREPQVYTLPPSREEMTKNQVSLTCLVKGFYPSDIAVEWESNGQPENNYKTTPPVLDSDGSFFLYSKLTVDKSRWQQGNVFSCSVMHEALHNAYTQKSLSLSPGK
light: EFVLTQSPGTLSLSPGERATLSCERSSGDIGESYVSWYQQKPGQAPRLVIYADDQRPSGIPDRFSGSGSGTDFTLTISRLEPEDFAVYYCQSYDINIDIVFGGGTKVEIKRGGSGGGGSGDTQLTQSPSSLSASVGDRVTITCRASESVSTVIHWYQQKPGKQPKLLIHGASNLESGVPSRFSGSGSGTDFTLTISSLQPEDFATYFCQQHWNDPPTFGQGTKLEIKRTVAAPSVFIFPPSDEQLKSGTASVVCLLNNFYPREAKVQWKVDNALQSGNSQESVTEQDSKDSTYSLSSTLTLSKADYEKHKVYACEVTHQGLSSPVTKSFNRGEC
B7: 9E8.4E-LS-9A8.12 (bispecific antibody, human IgG1, kappa, L234A L235A)
heavy: EVTLRESGPALVKPTQTLTLTCTFSGFSLSTYGMGVGWIRQPPGKALEWLANIWWDDDKYYNPSLKNRLTISKDTSKNQVVLTMTNMDPVDTATYYCARIESIGTTYSFDYWGQGTMVTVSSASTKGPSVFPLAPEVQLVQSGAEVKKPGASVKVSCKASGYTFTNYGMYWVRQAPGQGLEWMGWINTETGKPIYADDFKGRVTMTTDTSTSTAYMELRSLRSDDTAVYYCARVDYDGSFWFAYWGQGTLVTVSSASTKGPSVFPLAPSSKSTSGGTAALGCLVKDYFPEPVTVSWNSGALTSGVHTFPAVLQSSGLYSLSSVVTVPSSSLGTQTYICNVNHKPSNTKVDKKVEPKSCDKTHTCPPCPAPEAAGGPSVFLFPPKPKDTLMISRTPEVTCVVVDVSHEDPEVKFNWYVDGVEVHNAKTKPREEQYNSTYRVVSVLTVLHQDWLNGKEYKCKVSNKALPAPIEKTISKAKGQPREPQVYTLPPSREEMTKNQVSLTCLVKGFYPSDIAVEWESNGQPENNYKTTPPVLDSDGSFFLYSKLTVDKSRWQQGNVFSCSVMHEALHNAYTQKSLSLSPGK
light: EFVLTQSPGTLSLSPGERATLSCERSSGDIGESYVSWYQQKPGQAPRLVIYADDQRPSGIPDRFSGSGSGTDFTLTISRLEPEDFAVYYCQSYDINIDIVFGGGTKVEIKRTVAAPDTQLTQSPSSLSASVGDRVTITCRASESVSTVIHWYQQKPGKQPKLLIHGASNLESGVPSRFSGSGSGTDFTLTISSLQPEDFATYFCQQHWNDPPTFGQGTKLEIKRTVAAPSVFIFPPSDEQLKSGTASVVCLLNNFYPREAKVQWKVDNALQSGNSQESVTEQDSKDSTYSLSSTLTLSKADYEKHKVYACEVTHQGLSSPVTKSFNRGEC

recombinant human VEGF165, sequence (P15692 other isoform, or with tags, fused parts or gaps limits assumed): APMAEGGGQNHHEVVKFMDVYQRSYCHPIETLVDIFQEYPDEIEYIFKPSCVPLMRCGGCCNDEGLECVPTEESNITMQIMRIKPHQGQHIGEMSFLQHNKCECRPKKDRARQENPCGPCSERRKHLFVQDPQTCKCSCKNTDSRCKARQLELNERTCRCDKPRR

The first experiment deals with recombinant human PDGF-BB (human, UniProt P01127 82-190). In words: cell-based or functional assay.
Target sequence in this assay (P01127 82-190 limits assumed): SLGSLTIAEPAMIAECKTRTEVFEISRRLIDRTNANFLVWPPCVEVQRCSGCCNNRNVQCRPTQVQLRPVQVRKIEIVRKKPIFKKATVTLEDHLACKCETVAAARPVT
For the molecule B1, the “NIH-3T3 hPDGF-BB Potency IC50” value was 0.133 nM.

Consider B2, for which the “NIH-3T3 hPDGF-BB Potency IC50” value amounted to 0.147 nM.

In the case of B3, the “NIH-3T3 hPDGF-BB Potency IC50” value was 0.148 nM.

The next experiment has as its target recombinant human VEGF165 (human, UniProt P15692 207-395). Briefly: cell-based or functional assay.
As to B4, the “Potency IC50 (nM) HMVEC-d hVEGF165” value was found to be 0.095 nM.

As for B5, the “Potency IC50 (nM) HMVEC-d hVEGF165” value worked out at 0.124 nM.

In a further experiment the target is recombinant human PDGF-BB (human, UniProt P01127 82-190). Briefly: cell-based or functional assay. The source holds these as a separate data set.
Target sequence in this assay (P01127 82-190 limits assumed): as above
With B6, the “Potency IC50 (nM) NIH-3T3 hPDGF-BB” value is 0.327 nM.

Take B7: the “Potency IC50 (nM) NIH-3T3 hPDGF-BB” value turned out to be 0.066 nM.

In the case of B4, the “Potency IC50 (nM) NIH-3T3 hPDGF-BB” value was 0.063 nM.

For B5, the “Potency IC50 (nM) NIH-3T3 hPDGF-BB” value came out at 0.222 nM.

Source of the values: US20170015742A1 (published 2017).
